Measured values as given in patent publication US20020142955.

What was measured:
[1] = system: Mcc-Pro-Leu-Gly-Pro-D-Lys(DNP)
Suc-βAla-Leu-Tyr-Leu-Dox = system: T1, Suc-βAla-Leu-Tyr-Leu-Dox
T1 sequence: XLYL

Sequence of partially purified HeLa cell trouase (HeLa cell anion exchange fraction pool, F1) (chain, as listed by the source): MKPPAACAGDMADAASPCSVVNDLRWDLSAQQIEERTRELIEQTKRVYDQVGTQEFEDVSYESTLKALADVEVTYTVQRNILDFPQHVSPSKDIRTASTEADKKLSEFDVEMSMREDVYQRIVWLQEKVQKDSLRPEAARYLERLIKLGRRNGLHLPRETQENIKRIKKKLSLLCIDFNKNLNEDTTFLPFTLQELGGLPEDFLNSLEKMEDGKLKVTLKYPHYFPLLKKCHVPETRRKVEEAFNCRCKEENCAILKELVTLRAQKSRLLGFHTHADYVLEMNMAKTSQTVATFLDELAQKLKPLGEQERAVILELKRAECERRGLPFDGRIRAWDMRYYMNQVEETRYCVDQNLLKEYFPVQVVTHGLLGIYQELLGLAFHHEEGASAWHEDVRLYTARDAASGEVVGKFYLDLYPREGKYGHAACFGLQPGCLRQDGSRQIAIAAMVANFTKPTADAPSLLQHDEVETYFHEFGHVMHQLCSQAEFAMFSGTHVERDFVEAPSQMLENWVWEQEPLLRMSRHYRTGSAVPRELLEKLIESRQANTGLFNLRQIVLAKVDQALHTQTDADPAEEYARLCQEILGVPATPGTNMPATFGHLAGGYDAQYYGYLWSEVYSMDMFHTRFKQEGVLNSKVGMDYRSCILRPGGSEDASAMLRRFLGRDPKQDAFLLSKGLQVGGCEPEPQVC

Substance | rate of hydrolysis (Table 1, (F1)) (Suc-βAla-Ile-Ala-Leu-Dox) | rate of hydrolysis (Table 1, (F1)) (Suc-Ile-NmAla-Leu-Dox) | rate of hydrolysis (Table 1, (F1)) (Suc-Ile-Ala-Leu-Dox) | rate of hydrolysis (Table 1, (F1)) (Suc-βAla-Leu-Ala-Leu-Dox) | rate of hydrolysis (Table 1, (F1)) (Suc-Leu-NmAla-Leu-Dox) | rate of hydrolysis (Table 1, (F1)) (Suc-Met-Ala-Leu-Dox) | rate of hydrolysis (Table 1, (F1)) (Suc-Leu-Ala-Leu-Dox) | rate of hydrolysis (Table 1, (F1)) [1] | extent of cleavage (HPLC), fold of that of Suc-βAla-Leu-Ala-Leu-Dnr (Suc-Ala-Leu-Ala-Leu-Dnr) | rate of hydrolysis (Table 1, (F1)) (Suc-Leu-Ala-Gly-Dox) | % hydrolysis/10 hr (% hydrolysis/10 hr) (Suc-βAla-Leu-Ala-Leu-Dox) | Fraction hydrolyzed relative to standard (Suc-βAla-Leu-Ala-Leu-Dox) | % hydrolysis/10 hr (% hydrolysis/10 hr) (Suc-βAla-Leu-Tyr-Leu-Dox) | Fraction hydrolyzed relative to standard (Suc-βAla-Leu-Tyr-Leu-Dox)
partially purified HeLa cell trouase (HeLa cell anion exchange fraction pool, F1) | 0.025 | 0 | 0 | 1 | 0 | 0.49 | 0.78 | 1.5 | only 0.6 fold that of the P2 β-alanine compound | 0.4 | – | – | – | –
purified Porcine Kidney CD10 | – | – | – | – | – | – | – | – | – | – | 10.9 | 1 | 0 | 0
